Assay results reported in patent publication US20250339569A1 (3B PHARMACEUTICALS, published 2025).
Blank lines part the entries; values can stand above or below the binder they belong to. Starred links: 1 amine or outer side, 2 acyl side, 3 side chain; linkers in the order of their positions; H or OH if unused. Positions of bridges follow the written chain, without caps; N, C: chain ends. Non-standard residues stand in square brackets, D forms with d. Groups on a side chain read outwards from the residue. Primed or numbered codes have the meaning given here. *: point of attachment. Af3(DImAc) = 3-aminophenylalanine acylated on the ring amine with 2-{2,5-dioxo-octahydroimidazo[4,5-d]imidazolidin-1-yl}acetic acid, O=C(CN1C(=O)NC2NC(=O)NC21)Nc1cccc(C[C@H](N[*:1])C(=O)[*:2])c1; APAc″ = 2-(4-(amino)piperidin-1-yl)acetic acid, NC1CCN(CC(=O)*)CC1; DOTA = O=C(O)CN1CCN(CC(=O)O)CCN(CC(=O)*)CCN(CC(=O)O)CC1; Phe(4-CF3) = N[C@@H](Cc1ccc(C(F)(F)F)cc1)C(=O)O; Phe(4-I) = N[C@@H](Cc1ccc(I)cc1)C(=O)O; mXylylene = c1cc(C[*:1])cc(C[*:2])c1; Cha = N[C@@H](CC1CCCCC1)C(=O)O; Propanoyl(3-OH) = O=C(CCO)*; 4Amb = NCc1ccc(C(=O)O)cc1; 4Amc = not defined here; APAc = not defined here; Ac5c = NC1(C(=O)O)CCCC1; Inp′ = not defined here; Apr = not defined here; Dap = NC[C@H](N)C(=O)O

Key:
[1] = molecular target: T1, Fc-fusion protein of human carbonic anhydrase IX (human, UniProt Q16790 38-414); assay: SPR, captured hCAIX-Fc; pKD category A: >8.0
[2] = molecular target: T1, Fc-fusion protein of human carbonic …; assay: SPR, captured hCAIX-Fc; t1/2 category C: 2.1-5.0 min
Description: Stock solutions of test compounds were prepared by dissolving each compound in DMSO. DMSO stock solution were diluted 1:1000 in Running Buffer without DMSO. […] SPR binding analyses were performed in Single Cycle Kinetic (SCK) mode at 25° C.
For each test compound, SPR raw data in the form of resonance units (RU) were plotted as sensorgrams using the Biacore™ T200 control software. The signal from the blank sensorgram was subtracted from that of the test compound sensorgram (blank corrected). The blank corrected sensorgram was corrected for baseline drift by subtracting the sensorgram of a SCK run without the test compound (running buffer only). […] Raw data and fit results were imported as text files in IDBS. The pKD value (negative decadic logarithm of dissociation constant) was calculated in the IDBS excel template.

[3] = molecular target: human carbonic anhydrase 9 (CAIX) (human, UniProt Q16790 38-459); assay: FACS competition on HT-29 cells, competitor tracer 3BP-2776; category B = pIC50 7.1-8.0
Description: CAIX-expressing human HT-29 colorectal cancer cells (DSMZ, RRID: CVCL_0320) were cultured in McCoys's 5A modified medium (Biochrom, #F1015) including 10% fetal calf serum (FCS), 2 mM L-glutamine, 100 U/ml penicillin and 100 μg/mL streptomycin. Cells were detached with Accutase (Biolegend, #423201) and washed in FACS buffer (PBS including 1% FCS). Cells were diluted in FACS buffer to a final concentration of 500.000 cells per ml. 200 μL of the cell suspension were transferred to a u-shaped non-binding 96-well plate (Greiner) and cells were washed in ice-cold FACS buffer.
When biotinylated compounds were used an additional incubation step with 1 μg/mL APC-Streptavidin (Miltenyi; #130-106-791) in 50 μL FACS buffer for 30 minutes on ice was performed.
Cells were washed twice with ice-cold FACS buffer and analyzed in an Attune NxT flow cytometer (Thermo Fisher). Median fluorescence intensities (MFI) of the APC/Cy5-channel were calculated by Attune NxT software.

- pKD [1]: > 8 pkd
- t1/2 (half-life of the complex, SPR) [2]: 2.1 to 5 min
B1: 3BP-3587 (peptide)
peptide: {DOTA-APAc}-VYCE[dP]DW[Ac5c]TWSC-NH2
modifications: linker 3-12 via mXylylene; reading uncertain

- pKD [1]: > 8 pkd
- t1/2 (half-life of the complex, SPR) [2]: 2.1 to 5 min
B2: 3BP-4254 (peptide)
peptide: {DOTA-APAc″}-DCE[dP]DWLTW[Dap]C-NH2
modifications: lactam 10-1; linker 2-11 via mXylylene

- pKD [1]: > 8 pkd
- t1/2 (half-life of the complex, SPR) [2]: 2.1 to 5 min
B3: 3BP-4143 (peptide)
peptide: {DOTA-APAc″}-VYCE[dP]DW[Cha]TWSC-NH2
modifications: linker 3-12 via mXylylene

- pKD [1]: > 8 pkd
- t1/2 (half-life of the complex, SPR) [2]: 2.1 to 5 min
B4: 3BP-4263 (peptide)
peptide: {DOTA-Gab}-DCE[dP]DWLTW[Dap]C-NH2
modifications: lactam 1-10; linker 2-11 via mXylylene

- pKD [1]: > 8 pkd
- t1/2 (half-life of the complex, SPR) [2]: 2.1 to 5 min
B5: 3BP-4261 (peptide)
peptide: {DOTA-4Amb}-DCE[dP]DWLTW[Dap]C-NH2
modifications: lactam 10-1; linker 2-11 via mXylylene
SMILES: CC(C)C[C@@H]1NC(=O)[C@H](Cc2c[nH]c3ccccc23)NC(=O)[C@H](CC(=O)O)NC(=O)[C@H]2CCCN2C(=O)[C@H](CCC(=O)O)NC(=O)[C@@H]2CSCc3cccc(c3)CSC[C@@H](C(N)=O)NC(=O)[C@H](CNC(=O)C[C@H](NC(=O)c3ccc(CNC(=O)CN4CCN(CC(=O)O)CCN(CC(=O)O)CCN(CC(=O)O)CC4)cc3)C(=O)N2)NC(=O)[C@H](Cc2c[nH]c3ccccc23)NC(=O)[C@H]([C@@H](C)O)NC1=O

- pKD [1]: > 8 pkd
- t1/2 (half-life of the complex, SPR) [2]: 2.1 to 5 min
B6: 3BP-3906 (peptide)
peptide: {DOTA}-YCE[dP]DWLTWSC-NH2
modifications: linker 2-11 via mXylylene; also: ['indium complexed by DOTA']

- pKD [1]: > 8 pkd
- t1/2 (half-life of the complex, SPR) [2]: 2.1 to 5 min
B7: 3BP-4134 (peptide)
peptide: {DOTA-APAc}-VYCE[dP]D[Phe(4-I)]LTWSC-NH2
modifications: linker 3-12 via mXylylene; not fully specified; reading uncertain

- pKD [1]: > 8 pkd
- t1/2 (half-life of the complex, SPR) [2]: 2.1 to 5 min
B8: 3BP-4176 (peptide)
peptide: {DOTA-APAc″}-V[Dap]CE[dP]DWLTWDC-NH2
modifications: lactam 2-11; linker 3-12 via mXylylene

- pKD [1]: > 8 pkd
- t1/2 (half-life of the complex, SPR) [2]: 2.1 to 5 min
B9: 3BP-4341 (peptide)
peptide: {DOTA-APAc″}-VYCE[dP]D[Af3(DImAc)]LTWSC-NH2
modifications: linker 3-12 via mXylylene

- pKD [1]: > 8 pkd
- t1/2 (half-life of the complex, SPR) [2]: 2.1 to 5 min
B10: 3BP-4256 (peptide)
peptide: {DOTA-Inp′}-DCE[dP]DWLTW[Dap]C-NH2
modifications: lactam 10-1; linker 2-11 via mXylylene

- pKD [1]: > 8 pkd
- t1/2 (half-life of the complex, SPR) [2]: 2.1 to 5 min
B11: 3BP-4258 (peptide)
peptide: {DOTA-4Amc}-DCE[dP]DWLTW[Dap]C-NH2
modifications: lactam 10-1; linker 2-11 via mXylylene; reading uncertain

- pKD [1]: > 8 pkd
- t1/2 (half-life of the complex, SPR) [2]: 2.1 to 5 min
B12: 3BP-3842 (peptide)
peptide: {Propanoyl(3-OH)}-YCE[dP]DWLTWE([Apr-DOTA])C-NH2
modifications: linker 2-11 via mXylylene; reading uncertain

- pKD [1]: > 8 pkd
- t1/2 (half-life of the complex, SPR) [2]: 2.1 to 5 min
B13: 3BP-4257 (peptide)
peptide: {DOTA}-SDCE[dP]DWLTW[Dap]C-NH2
modifications: lactam 11-2; linker 3-12 via mXylylene
SMILES: CC(C)C[C@@H]1NC(=O)[C@H](Cc2c[nH]c3ccccc23)NC(=O)[C@H](CC(=O)O)NC(=O)[C@H]2CCCN2C(=O)[C@H](CCC(=O)O)NC(=O)[C@@H]2CSCc3cccc(c3)CSC[C@@H](C(N)=O)NC(=O)[C@H](CNC(=O)C[C@H](NC(=O)[C@H](CO)NC(=O)CN3CCN(CC(=O)O)CCN(CC(=O)O)CCN(CC(=O)O)CC3)C(=O)N2)NC(=O)[C@H](Cc2c[nH]c3ccccc23)NC(=O)[C@H]([C@@H](C)O)NC1=O

- pIC50 [3]: 7.1 to 8 pic50
B14: 3BP-3888 (peptide)
peptide: Ac-VYCK[dP]DWLEWSC-NH2
modifications: linker 3-12 via mXylylene; lactam 4-9
SMILES: CC(=O)N[C@H](C(=O)N[C@@H](Cc1ccc(O)cc1)C(=O)N[C@H]1CSCc2cccc(c2)CSC[C@@H](C(N)=O)NC(=O)[C@H](CO)NC(=O)[C@H](Cc2c[nH]c3ccccc23)NC(=O)[C@@H]2CCC(=O)NCCCC[C@H](NC1=O)C(=O)N1CCC[C@@H]1C(=O)N[C@@H](CC(=O)O)C(=O)N[C@@H](Cc1c[nH]c3ccccc13)C(=O)N[C@@H](CC(C)C)C(=O)N2)C(C)C

- pIC50 [3]: 7.1 to 8 pic50
B15: 3BP-3933 (peptide)
peptide: {DOTA-APAc}-VYCE[dP]KWLEWSC-NH2
modifications: linker 3-12 via mXylylene; lactam 6-9; reading uncertain

- pIC50 [3]: 7.1 to 8 pic50
B16: 3BP-3901 (peptide)
peptide: Ac-VYCE[dP]EWLKWSC-NH2
modifications: linker 3-12 via mXylylene; lactam 6-9
SMILES: CC(=O)N[C@H](C(=O)N[C@@H](Cc1ccc(O)cc1)C(=O)N[C@H]1CSCc2cccc(c2)CSC[C@@H](C(N)=O)NC(=O)[C@H](CO)NC(=O)[C@H](Cc2c[nH]c3ccccc23)NC(=O)[C@@H]2CCCCNC(=O)CC[C@H](NC(=O)[C@H]3CCCN3C(=O)[C@H](CCC(=O)O)NC1=O)C(=O)N[C@@H](Cc1c[nH]c3ccccc13)C(=O)N[C@@H](CC(C)C)C(=O)N2)C(C)C

- pKD [1]: > 8 pkd
- t1/2 (half-life of the complex, SPR) [2]: 2.1 to 5 min
B17: 3BP-3934 (peptide)
peptide: {DOTA}-YCE[dP]KWLEWSC-NH2
modifications: linker 2-11 via mXylylene; lactam 5-8
SMILES: CC(C)C[C@@H]1NC(=O)[C@H](Cc2c[nH]c3ccccc23)NC(=O)[C@@H]2CCCCNC(=O)CC[C@H](NC1=O)C(=O)N[C@@H](Cc1c[nH]c3ccccc13)C(=O)N[C@@H](CO)C(=O)N[C@H](C(N)=O)CSCc1cccc(c1)CSC[C@H](NC(=O)[C@H](Cc1ccc(O)cc1)NC(=O)CN1CCN(CC(=O)O)CCN(CC(=O)O)CCN(CC(=O)O)CC1)C(=O)N[C@@H](CCC(=O)O)C(=O)N1CCC[C@@H]1C(=O)N2

- pKD [1]: > 8 pkd
- t1/2 (half-life of the complex, SPR) [2]: 2.1 to 5 min
B18: 3BP-3867 (peptide)
peptide: {DOTA-APAc″}-YCE[dP]DWLTWSC-NH2
modifications: linker 2-11 via mXylylene

- pKD [1]: > 8 pkd
- t1/2 (half-life of the complex, SPR) [2]: 2.1 to 5 min
B19: 3BP-4139 (peptide)
peptide: {DOTA-APAc″}-VYCE[dP]D[Phe(4-CF3)]LTWSC-NH2
modifications: linker 3-12 via mXylylene; not fully specified
